Where a chain is given by its changes, count along the chain named.
Legend:
[1] = target: T1, Pot1-DBD (Schizosaccharomyces pombe, UniProt O13988 1-389); experiment: filter binding
T1 sequence: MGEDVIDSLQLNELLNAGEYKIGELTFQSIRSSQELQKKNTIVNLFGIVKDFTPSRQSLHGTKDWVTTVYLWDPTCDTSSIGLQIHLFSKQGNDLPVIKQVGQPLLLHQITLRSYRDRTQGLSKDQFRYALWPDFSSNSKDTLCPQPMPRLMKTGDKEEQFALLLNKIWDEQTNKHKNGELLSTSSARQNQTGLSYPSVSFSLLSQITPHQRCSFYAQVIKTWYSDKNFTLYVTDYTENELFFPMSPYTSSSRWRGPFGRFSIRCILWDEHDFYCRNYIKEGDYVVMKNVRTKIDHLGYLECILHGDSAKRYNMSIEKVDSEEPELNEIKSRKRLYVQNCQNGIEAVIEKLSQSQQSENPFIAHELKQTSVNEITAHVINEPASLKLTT

[2] = target: T2, Pot1-DBD_V97A (Schizosaccharomyces pombe, UniProt O13988 1-389, V97A); experiment: filter binding
T2 sequence: T1 sequence with V97A

[3] = target: T3, Pot1-DBD_T62A (Schizosaccharomyces pombe, UniProt O13988 1-389, T62A); experiment: filter binding
T3 sequence: T1 sequence with T62A

[4] = target: T4, Pot1-DBD_L122A (Schizosaccharomyces pombe, UniProt O13988 1-389, L122A); experiment: filter binding
T4 sequence: T1 sequence with L122A

[5] = target: T5, Pot1pC (Schizosaccharomyces pombe, UniProt O13988 178-389); experiment: EMSA
T5 sequence: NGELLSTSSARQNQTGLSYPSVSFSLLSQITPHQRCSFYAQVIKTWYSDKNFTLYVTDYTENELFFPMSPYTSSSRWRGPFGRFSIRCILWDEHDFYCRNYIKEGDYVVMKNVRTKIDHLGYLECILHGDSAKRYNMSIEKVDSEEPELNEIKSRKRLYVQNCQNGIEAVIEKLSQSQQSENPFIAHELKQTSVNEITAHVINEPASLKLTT

GGTTACGGTTAC (ssDNA) [12mer]
Kd [1]: 1 ± 0.1 nM
Kd [2]: 10 ± 1 nM
Kd [3]: 90 ± 3 nM
Kd [4]: 90 ± 7 nM
Kd [5]: 700 ± 200 nM

Reference: paper PMC2756145
